Reference: patent US20070099822A1, “Regulation of tissue mineralization and phosphate metabolism by asarm peptides” (priority 2003, published 2007)
Several values for one entry are separate records, joined by “and”; a condition that tells them apart may be missing. Equal entries are not always repeated. Entries after “also recorded” stand apart in the source; their conditions may differ.

B1: Hu-MEPE: purified insect expressed full-length recombinant human MEPE (Matrix Extracellular Phosphoglycoprotein) (protein)
chain: PTFQPQTEKTKQSCVEEQRQEEKNKDNIGFHHLGKRINQELSSKENIVQERKKDLSLSEASENKGSSKSQNYFTNRQRLNKEYSISNKENTHNGLRMSIYPKSTGNKGFEDGDDAISKLHDQEEYGAALIRNNMQHIMGPVTAIKLLGEENKENTPRNVLNIIPASMNYAKAHSKDKKKPQRDSQAQKSPVKSKSTHRIQHNIDYLKHLSKVKKIPSDFEGSGYTDLQERGDNDISPFSGDGQPFKDIPGKGEATGPDLEGKDIQTGFAGPSEAESTHLDTKKPGYNEIPEREENGGNTIGTRDETAKEADAVDVSLVEGSNDIMGSTNFKELPGREGNRVDAGSQNAHQGKVEFHYPPAPSKEKRKEGSSDAAESTNYNEIPKNGKGSTRKGVDHSNRNQATLNEKQRFPSKGKSQGLPIPSRGLDNEIKNEMDSFNGPSHENIITHGRKYHYVPHRQNNSTRNKGMPQGKGSWGRQPHSNRRFSSRRRDDSSESSDSGSSSESDGD

Key:
[1] = molecular target: T1, MEPE-PHEX interaction (Homo sapiens, UniProt P78562); assay: Surface plasmon resonance, peptide solution competition of secPHEX-MEPE binding
T1 construct: to generate a soluble, secreted form of PHEX; made in house; host or cells: secPHEX: mammalian cells (gift, University of Montreal); MEPE: S. frugiperda insect cells
T1 sequence (P78562 46-749 limits assumed): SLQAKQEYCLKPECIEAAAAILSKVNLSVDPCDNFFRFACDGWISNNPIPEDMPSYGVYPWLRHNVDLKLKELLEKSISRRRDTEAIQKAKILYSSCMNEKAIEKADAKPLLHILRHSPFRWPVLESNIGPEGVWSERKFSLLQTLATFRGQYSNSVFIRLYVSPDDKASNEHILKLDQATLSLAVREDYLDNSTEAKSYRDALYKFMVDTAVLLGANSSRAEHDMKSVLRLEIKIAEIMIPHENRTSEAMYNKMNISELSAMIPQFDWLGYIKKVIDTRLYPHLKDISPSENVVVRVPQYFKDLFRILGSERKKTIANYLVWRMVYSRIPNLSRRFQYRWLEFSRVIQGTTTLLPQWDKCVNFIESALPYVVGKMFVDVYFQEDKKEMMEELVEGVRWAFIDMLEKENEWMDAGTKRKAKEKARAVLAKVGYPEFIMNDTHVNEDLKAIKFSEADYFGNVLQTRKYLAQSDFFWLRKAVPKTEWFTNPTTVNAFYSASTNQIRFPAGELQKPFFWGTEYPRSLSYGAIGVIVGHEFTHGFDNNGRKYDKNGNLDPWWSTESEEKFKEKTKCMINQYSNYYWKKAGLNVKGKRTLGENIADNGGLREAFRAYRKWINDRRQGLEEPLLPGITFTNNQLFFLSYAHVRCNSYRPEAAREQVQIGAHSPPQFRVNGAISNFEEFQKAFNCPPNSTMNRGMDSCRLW
Source text: Surface Plasmon Resonance: Synthetic peptides & competitive PHEX-MEPE binding studies. For these experiments CM-5 chips containing flow-cells immobilized with MEPE, PHEX and IgG ligands at 6000 RU were used. Just prior to SPR injection, stock solution of specific-peptide (as defined for each experiment; see Table 1), and dissolved in analyte buffer (HBS-P—Zn) […] The following equation was used to compute KDapp values: RU=Bmax/inhib×(peptide(μM))/KDapp+(peptide(μM)). The Bmax/inh value represents the maximal percentage inhibition change in RU (i.e., PHEX-MEPE binding) relative to the “non-peptide” control (0% inhibition of binding), using a constant analyte flow-solution of secPHEX of 250 nM against immobilized MEPE ligand at 6000 RU. […] The control MEPE-RGD peptide had no effect on MEPE-PHEX interactions.

[2] = test system: Na+ dependent phosphate co-transport in primary human renal proximal tubule epithelial cells (RPTEC); assay: 33PO4 uptake scintillation proximity assay (SPA) in RPTEC; type: cell-based
Protocol: Measurement of ^33PO4 uptake and ^14C-α-methyl D-glucose uptake. A novel technique, scintillation proximity assay (SPA), was used to measure ^33PO4 uptake in-vitro. Human renal proximal-tubule primary cells (RPTEC) were purchased from Clonetics-Biowhittaker (Walkersville, Md.) (cat. no. CC2553) and were cultured and subcultured using the manufacturers recommended protocols, methods, buffers and media (cat. nos. CC3190, CC5034). Also a human renal cell-line (Hu-CL8) was cultured as previously described (Rowe et al. Candidate 56 and 58 kDa protein(s) responsible for mediating the renal defects in oncogenic hypophosphatemic osteomalacia. Bone 18(2):159-169, 1996). For ^33PO4-uptake measurement cells were grown in REBM media supplemented with 5% fetal calf serum (REBM-FCS) to 80% confluence (Clonetics-Biowhitaker, Walkersville, Md.: cat. nos. CC2553, CC3190 and CC5034) and seeded into 96 well (3000 cells/well) cytostar-T scintillating-microplates (Amersham-Pharmacia Biotech, Piscataway, N.J.: cat. no. RPNQ 0162). Cells were then cultured in 200 μL of REBM-FCS media for 24 h. Media was then replaced with serum free media (REBM) and the cells incubated for a further 3-4 h with Hu-MEPE, PTH (1-34) or media control respectively in REBM media. The concentrations of PTH (1-34) and Hu-MEPE were […] and each experimental dose was repeated eight times for statistical analysis. Following incubation media was removed and replaced with either phosphate uptake buffer (PUB) consisting of 150 mM NaCl/1 mM Cacl2/1.8 mM MgSO4/10 mM HEPE pH 7.0/0.1 mM phosphate buffer pH 7.0 and 3 uCi mL^−1 33P as orthophosphoric acid (18 MBq/mL or 5775.7 Gbq/mg stock solution Perkin Elmer, Wellesley, Mass.: cat. no. NEZ080). In order to determine the Na-dependent phosphate co-transporter activity a separate set of control cells were incubated with the same buffer but with choline chloride (150 mM) substituted for NaCl (CHUB buffer). After 10 min at 37° C. the reaction was terminated by removing the PUB and CHUB buffers and replacing with STOP buffer (CHUB buffer without radioisotope). The cytostar scintillation plates were then directly assayed for counts (CPM) using a Hewlett-Packard (Palo Alto, Calif.) Multiplate Top-counter calibrated for ^33P SPA assay. Due to the unique design of the 96 well cytostar-plate radioactive decay in solution is not detected by the counter. In contrast, radioisotope attached to or taken into the cells initiates release of plastic-scintillant photons that are detected by the top-counter photo-multiplier tube. Thus, no washes are required and direct CPM can be counted in living cells. Following CPM determination the buffers were removed from the living cells and fresh media supplemented with cell-titre-96 (Promega-Biotech, Madison, Wis.: cat. no. G5421) cell-number detection media. Cells were then further incubated at 37° C. for 4 h. Conversion of a tetrazolium salt to a colored formazan product by living cells was then measured at 490 nm using a 96 well multi-well spectrophotometer with KC-4 software (absorbance at 490 nm is directly proportional to the number of living cells). Na-dependent ^33P uptake was then calculated by subtracting background counts and the choline chloride non Na-dependent ^33P uptake and results expressed as ^33PO4 femtomoles/10^4-cells/6 min. […]

| Molecule | Kd ([1]; 250 nM secPHEX, MEPE 6000 RU, read-out: apparent KDapp, solution competition of MEPE-PHEX binding) | inhibition of MEPE-PHEX interaction ([1]; peptide pre-mixed with secPHEX, MEPE-RGD up to 85 μM) | Vmax of percentage inhibition of 33PO4-uptake [2] | inhibition of Na+ dependent phosphate co-transport [2] | Km of inhibition of 33PO4-uptake ([2]; lineweaver-burke plot) |
| --- | --- | --- | --- | --- | --- |
| H-CFSSRRRDDSSESSDSGSSSESDGD-OH [ASARM-peptide] | ~35 µM | able to inhibit; also recorded: dramatic dose-dependent inhibition |  |  |  |
| B1 |  |  | 53.4% | dose-dependent in-vitro inhibition | 27.4 ng/mL and 27.39 ng/mL |
